Experimental data taken from the nanobody polyreactivity screen of Harvey et al. (2022).

Experiment: yeast display, Sf9 membrane polyspecificity reagent, FACS + sequencing; frameworks hold sequencing errors
How it was run: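 A synthetic nanobody library was expressed on Saccharomyces cerevisiae BJ5465 by galactose induction for 36–48 hours. The library was stained for 1 hour at 4 °C with 10% biotinylated, detergent-solubilized Sf9 membrane reagent and enriched with streptavidin microbeads before FACS. Low and high (top ~1%) gates were set on anti-HA fluorescence for expression and streptavidin fluorescence for reagent binding, and each polyreactivity label reflects the gate of origin.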

Row | Sequence | polyreactivity (PSR sort gate)
1 | QVQLVESGGGLVQAGGSLRLSCAASGRIFGAYAMGWYRQAPGKERELVATITKRGGSTFYADSVKGRFTISRDNAKNTVYLQMNSLKPEDTAVYYCAVSSFYRGRYDYWGQGTQVTVSS | high polyreactivity
2 | QVQLVESGGGLVQAGGSLRLSCAASGRIFGCYAMGWYRQAPGKERELVAAISSGGNTKYADSVKGRFTISRDNAKNTVYLQMNSLKPEDTAVYYCAAKFAQPDYRYDYWGQGTQVTVSS | high polyreactivity
3 | QVQLVESGGGLVQAGGSLRLSCAASGRIFGDNGMGWYRQAPGKERELVTYADSVKGRFTISRDNAKNTVYLQLNSLQPEDTAVYYCYSPFGGKYDYWGQGTQVTVSS | low polyreactivity
4 | QVQLVESGGGLVQAGGSLRLSCAASGRIFGDYAMGWYRQAPGKERELVADITWSGGSTYYADSVKGRFTISRDNAKNTVYLQMNSLKPEDTAVYYCNADVWFYYTFDYWGQGTQVTVSS | low polyreactivity
5 | QVQLVESGGGLVQAGGSLRLSCAASGRIFGDYGMGWYRQAPGKDRELVAAITDRGGTTYYADSVKGRFTISRDNAKNTVYVQKNSLQPEDTAVYYCNADTVVVWYSPSREYDYWGQGTQVTVSS | low polyreactivity
6 | QVQLVESGGGLVQAGGSLRLSCAASGRIFGEYAMGWYRQAPGKERELVAAISGGGSTYYADSVKGRFTISRDNAKNTVYLQMNSLKPEDTAVFYCAVYSVYHEYDYWGQGTQVTVSS | low polyreactivity
7 | QVQLVESGGGLVQAGGSLRLSCAASGRIFGFNAMGWYRQAPGKERQLVAAISGRSGRTYYADSVKGRFTISRDNAKNTVYLQLNSLIPEDTAVYYCNTVGYRGPSWYVYWGQGTQVTVSS | high polyreactivity
8 | QVQLVESGGGLVQAGGSLRLSCAASGRIFGFYTIGWYRQAPGKERELVATISWSGSGTYYADSVKGRFTISRDNAKNTVYLQMNSLKPEDTAVYYCNADWYYVGYDYWGQGTQVTVSS | low polyreactivity
9 | QVQLVESGGGLVQAGGSLRLSCAASGRIFGGNAMGWYRQAPGKERELVAAINSSGGRTYYADSVKGRFTISRDNAKNTVYLQMNSLKPEDTAVYYCAARVGGNWYDYWGQGTQVTVSS | high polyreactivity
10 | QVQLVESGGGLVQAGGSLRLSCAASGRIFGGYAMGWYRQAPGKERELVAAIRWSGGSTYADSVKGRFTISRDNAKYTVYLQMNSLKPEDTAVYYCNTVRSPPGHDYWGQGTQVTVSS | low polyreactivity
11 | QVQLVESGGGLVQAGGSLRLSCAASGRIFGGYAMGWYRQAPGKERELVAAISNGGSTYYADSVKGRFTISRDNAKNTVYLQMNSLKPEDTAVYYCAARWNWTGYRYDHWGQGTQVTVSS | low polyreactivity
12 | QVQLVESGGGLVQAGGSLRLSCAASGRIFGGYDMGWYRQAPGKERELVAAMTSDSSTTYADSVKGRFTISRDNAKNTVYLQMNSLKPEDTAVYYCAVQVNGPVFYRPYLDYDYWGQGTQVTVSS | low polyreactivity
13 | QVQLVESGGGLVQAGGSLRLSCAASGRIFGHYAMGWYIQAPGKERELVAAISRGGSTNYADSVKGRFTISRDNAKNTVYLQINSLKPVDNAVYYCNAAYSDYEYDYWGQGTQVSVSS | low polyreactivity
14 | QVQLVESGGGLVQAGGSLRLSCAASGRIFGHYAMGWYRQAPGKEMELVAAITIGGSTYYADSVKGRFTISRDNAKNTVYLQMNSLKPEDTAVYYCAKVGSNYRGRLGYWGQGTQVTVSS | low polyreactivity
15 | QVQLVESGGGLVQAGGSLRLSCAASGRIFGHYAMGWYRQAPGKERELVAAISRGGSTYYADSVKGRFTISRDNAKNTVYLQMNSLKPEDTAVYYCNTTKAYGSLWWRGDYWGQGTQVTVSA | high polyreactivity
16 | QVQLVESGGGLVQAGGSLRLSCAASGRIFGHYAMGWYRQAPGKERELVASITDGTSTNYADSVKGRFTISRDNAKNTVYLQMNSLKPEDTADYYCAADDRLQFPRGDYCGQGTQVTVSS | low polyreactivity
17 | QVQLVESGGGLVQAGGSLRLSCAASGRIFGINAMGSYRQAPGKERELVAAINWSGGSTYYADSVKGRFTISRDNAKNTVYLQMNSLKPEDTAVYYCAAQKYKRVGYWGQGTQVTVSS | high polyreactivity
18 | QVQLVESGGGLVQAGGSLRLSCAASGRIFGINVMGWYRQAPGKERELVAAISYRTGSTYYADSVKGRFTISRDNAKNTVYLQMNSLKPEDTAVYYCAAQRRIRTAWYDYWGQGTQVTVSS | high polyreactivity
